Data taken from PMC7961039, “Musashi-2 (MSI2) regulates epidermal growth factor receptor (EGFR) expression and response to EGFR inhibitors in EGFR-mutated non-small cell lung cancer (NSCLC)”.

Biological target: Musashi-2 (MSI2) (UniProt Q96DH6 1-328)
Assay: EMSA; 10 mM HEPES pH 7.6, 20 mM KCl, 1 mM MgCl2, 1 mM DTT, 5% glycerol, protease inhibitors, 2 ug tRNA, 20 U SUPERase-In, 20 ul, 50 ng MSI2, 20 ng RNA, 25 C; 8% PAGE
Details: protein: recombinant; label: 5'-32P

Chain of Musashi-2 (MSI2) (Q96DH6 whole entry): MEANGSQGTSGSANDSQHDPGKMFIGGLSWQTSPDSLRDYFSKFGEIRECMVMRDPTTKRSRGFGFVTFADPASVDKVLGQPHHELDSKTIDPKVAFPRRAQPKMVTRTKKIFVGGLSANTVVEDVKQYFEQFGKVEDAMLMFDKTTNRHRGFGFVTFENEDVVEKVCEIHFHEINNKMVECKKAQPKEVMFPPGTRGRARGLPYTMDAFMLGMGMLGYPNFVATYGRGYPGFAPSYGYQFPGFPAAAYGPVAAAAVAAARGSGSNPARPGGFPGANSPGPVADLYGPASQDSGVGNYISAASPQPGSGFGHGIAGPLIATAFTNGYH

## GGUCCCAAGCCAAGCCUUAAGU (ssRNA) [Negative Control oligo]
  binding result: no binding

## GCAGAUGUUUUAGAAGGAAAAA (ssRNA) [EGFR Oligo 1 wt]
  binding result: binds

## GUAGUAGUAGUAGUA (ssRNA) [Positive Control oligo]
  binding result: binds

## UAACUUCGUUUUAGAAACAUUCAAG (ssRNA) [EGFR Oligo 2 wt]
  binding result: binds
